The target of the assay is MR1-restricted antigen synthesized by S. Typhimurium and highly abundant in that microbe peptide on MR1 (human). Put plainly: T cell clone or line.
The mark [1] stands for this setting: chains alpha TRAV1-2 TRAJ33 CDR3:beta TRBV3-1 TRBJ2-2 CDR3.

B1: D0033A2 (peptide)
chain 1: CAVTDSNYQLI
chain 2: CASSQAETELNTGELF
With B1, the geometric MFI under setting [1] was determined as 2480.

B2: 450B9 (peptide)
chain 1: CAVMDSNYQLI
chain 2: CASTPSGEFSEAF
B2: under “chains alpha TRAV1-2 TRAJ33 CDR3:beta TRBV6-1 TRBJ1-1 CDR3”, the geometric MFI came to 2520.

B3: D0033A10 (peptide)
chain 1: CAVTDSNYQLI
chain 2: CASSSGLEVTGELF
B3 yielded a geometric MFI under setting [1] of 2130.

B4: 450A9 (peptide)
chain 1: CAVRDSNYQLI
chain 2: CSAREVEGTYEQY
With B4, the geometric MFI (chains alpha TRAV1-2 TRAJ33 CDR3:beta TRBV20-1 TRBJ2-7 CDR3) was 2030.

B5: 427D8-2 (peptide)
chain 1: CAVMDSNYQLI
chain 2: CASSLLRQGTEKLF
On to B5, for which the geometric MFI (chains alpha TRAV1-2 TRAJ33 CDR3:beta TRBV5-1 TRBJ1-4 CDR3) was determined as 3440.

B6: 571F3-2 (peptide)
chain 1: CAVRDSNYQLI
chain 2: CASSEASGGTDTQY
In turn, B6 showed a geometric MFI (chains alpha TRAV1-2 TRAJ33 CDR3:beta TRBV6-4 TRBJ2-3 CDR3) of 2760.

B7: 403A9 (peptide)
chain 1: CAVVDSNYQLI
chain 2: CSARDGGEAYNEQF
Regarding B7, under “chains alpha TRAV1-2 TRAJ33 CDR3:beta TRBV20-1 TRBJ2-1 CDR3”, the geometric MFI worked out at 1600.

B8: D0033A6 (peptide)
chain 1: CAVVDSNYQLI
chain 2: CASSHSSGTGGNEQF
On to B8, for which the geometric MFI (chains alpha TRAV1-2 TRAJ33 CDR3:beta TRBV4-2 TRBJ2-1 CDR3) was 2620.

Values taken from publication PMC7541710.
